B1: S9-1-10/5-1 (antibody, V domains shown)
VH: QLHLQESGPGLLKPSATLSLTCTVSGGSMNNYYWSWVRQAPGKGLEWIGYIFHSGSTNYSPPLKSRVTISIDTATNQFFLRLNSVTAADTAVYYCARMSRGVFSSSRFFGLDVWGRGTAVAVSS
VL: EIVLTQSPATLSVSPGERATLSCRASQSVASNLAWYQQKPGQAPRLLISAASTRATDIPARFSGSGSGTEFTLTISSLQSEDFAVYYCQQYNNWLSFTFGPGTKVDMKG

Tests used:
[1] = biological target: HA of Perth/16 (H3N2) virus (influenza A virus A/Perth/16/2009 (H3N2)); assay: cell-based or functional assay
[2] = biological target: HA of A/California/04/2009 (H1N1pdm09) (influenza A virus A/California/04/2009 (H1N1pdm09)); assay: cell-based or functional assay
[3] = biological target: HA of A/California/04/2009 (H1N1pdm09) (influenza A virus A/California/04/2009 (H1N1pdm09))
[4] = biological target: recombinant HA protein of A/Perth/16/2009 (H3N2) (influenza A virus A/Perth/16/2009 (H3N2))
[5] = biological target: recombinant HA protein of Egypt (H5N1 type) (influenza A virus, 'Egypt' (H5N1))
[6] = biological target: recombinant HA protein of A/Netherland/219/2003 (H7N7) (influenza A virus A/Netherland/219/2003 (H7N7))
[7] = biological target: recombinant HA protein of A/California/07/2009 (H1N1pdm09) (influenza A virus A/California/07/2009 (H1N1pdm09))
[8] = biological target: three viruses, CA04, Egypt, and Anhui/1; assay: cell-based or functional assay

| Molecule | IC 50, neutralization test 1 (Pre), CPE on MDCK cells [1] [µg/mL] | IC 50, neutralization test 1 (Pre), CPE on MDCK cells [2] [µg/mL] | apparent rate constant k obs, fold over that of S9-1-10/5-1 [3] [fold] | Kd [4] [nM] | Kd [5] [nM] | Kd [6] [nM] | Kd [7] [nM] | IC 50, neutralization test 2 (Post), CPE on MDCK cells [8] [µg/mL] |
| --- | --- | --- | --- | --- | --- | --- | --- | --- |
| CR9114 (antibody) | 25 | 7.4 | 11.6 | – | – | – | – | – |
| B1 | – | – | – | 34 | 0.14 | 0.9 | 0.0085 | 0.55 to 8.8 |

— patent publication WO2018038096A1
